Where two headings read alike, the source gives them in different places.

Series [1] deals with rhodamine labeled-ddNTP and primer:template (pBluescript II). Nature of the series: Steady-state kinetics for rhodamine labeled ddNTPs and primer:template. The series is classed as biochemical. Particulars: 60° C. The method, then:
Km and Vmax values for rhodamine labeled-ddNTP incorporation were measured by incubating 50 nM primer: template with limiting amounts of polymerase (0.1 units or 5 nM) and varying concentrations of rhodamine labeled-ddNTP ranging from 0.1 nM to 500 nM. Samples were incubated at 60° C. for 10 minutes. The reactions were then quenched with ice-cold 0.2 M EDTA (final concentration). Unincorporated rhodamine labeled ddNTPs were removed by purifying the extended primer:templates on CENTRI-SEP spin columns. Reactions were then dried, and the pellets dissolved in 3:1 formamide:EDTA/blue dextran and analyzed by 6% denaturing PAGE on an ABI 377 sequencer. All peak area quantitations were performed using 3.1.2 GeneScan software and Km and Vmax values were calculated using Lineweaver-Burk plots.
Km and Vmax values for primer:template were measured with limiting amounts of enzyme (0.1 units or 5 nM) in the presence of 100 nM of R110-ddGTP and varying concentrations of primer:template (pBL31G:pBluescript II) ranging from 0.5 to 100 nM. Samples were incubated for 10 minutes at 60° C. The reactions were then quenched, purified from unincorporated rhodamine labeled-ddNTPs, and analyzed as described above.
Km and Vmax values for rhodamine-ddNTP incorporation were measured as described Patel, P. H. et al. (2001). J. Biol. Chem. 276, 5044-51 by incubating 50 nM primer:template with limiting amounts of DNA polymerase (0.1 units, 5 nM) and varying concentrations of rhodamine labeled-ddNTP (0.1 nM to 500 nM). All single nucleotide incorporations with R6G-ddATP and TAMRA-ddATP employed pBL34A:pBluescript II, while reactions with TAMRA-ddCTP were performed with pBL25C:pBluescript II. The 10× reaction buffer used for JDF-3 DNA polymerase contained 200 mM Tris-HCl (pH 8.8), 100 mM KCl, 100 mM (NH4)2SO4, and 20 mM MgSO4, while the 10× reaction buffer employed with the Taq F667Y mutant consisted of 260 mM Tris-HCl (pH 9.5) and 65 mM MgCl2. Samples were incubated at 60° C. for 10 minutes, and the reactions were quenched with ice-cold 0.2 M EDTA (final concentration). Unincorporated rhodamine-ddNTPs were removed with CENTRI-SEP spin columns according to the manufacturer's manual. Reactions were dried, and the pellets were dissolved in 3:1 formamide:EDTA/blue dextran and analyzed by 6% denaturing PAGE on an ABI 377 sequencer. Peak area quantitations were performed using 3.1.2 GeneScan® software and Km and Vmax values were calculated using Lineweaver-Burk plots.
Km and Vmax values for primer:template were measured with limiting amounts of enzyme (0.1 units, 5 nM) in the presence of 100 nM dye-ddNTP and varying concentrations of primer:template (0.5-100 nM). Single nucleotide incorporations with R110-ddGTP employed pBL31G:pBluescript II, while reactions with ROX-ddCTP were carried out with pBL25C:pBluescript II. Samples were incubated and analyzed as described above.

For a further series, the system named is primer:template. Briefly: Fidelity screen with rhodamine labeled non-complementary ddNTP. The series is classed as biochemical. The conditions noted are these: R110-labeled incorrect ddNTP. Here is the method: Reactions (10 μl) contained 1 unit of enzyme in 1× reaction buffer, 15 nM primer template, 25 nM of unlabeled complementary ddNTP, and 25, 100, 500, or 1000 nM of rhodamine labeled non-complementary ddNTP in four separate reactions. The reactions were incubated in a Perkin-Elmer 9600 for 25 cycles as follows: 96° C. for 10 s, 50° C. for 5 s, and 60° C. for 30 s. The reactions were then quenched with ice-cold 0.2 M EDTA (final concentration) and the products were purified from unincorporated rhodamine labeled ddNTPs and analyzed as described above.
Fidelity was determined as the tendency of a DNA polymerase to incorporate the correct nucleotide in the presence of increasing amounts of a non-complementary nucleotide. These assays employed constant amounts of primer:template, an unlabeled complementary ddNTP and DNA polymerase, and various concentrations of a rhodamine-labeled non-complementary ddNTP, as described in the Experimental Protocol. The amount of misextended primers is plotted against the ratio of rhodamine-labeled incorrect ddNTP/unlabeled correct ddNTP (FIG. 18 panels A and B). We performed similar assays for all possible mispairs (Table IX).
To address these concerns, the insertion fidelity of the JDF-3 P410L/A485T and Taq F667Y mutants was compared. In the first set of fidelity assays, a constant amount of primer:template, an unlabeled complementary ddNTP, and increasing concentrations of R110-labeled non-complementary ddNTP was used (Materials and Methods). […] The amount of misextended primers was determined and plotted against the ratio of R110-labeled incorrect ddNTP/unlabeled correct ddNTP (FIG. 27, panels A and B). Similar assays for all 12 possible mispairs was performed (ddG:dT, ddT:dG, ddT:dC, ddC:dT, ddC:dA, ddA:dC, ddA:dG, ddG:dA, ddT:dT, ddC:dC, ddA:dA, ddG:dG). […] The other mispairs are formed less frequently, and at similar rates for the JDF-3 P410L/A485T and Taq F667Y mutants (data not shown).
Fidelity assays using labeled ddNTPs (10 μl) contained 1 unit DNA polymerase in 1× reaction buffer, 15 nM primer: template, 25 nM of unlabeled complementary ddNTP, and 25, 100, 500, or 1000 nM of rhodamine-labeled non-complementary ddNTP in four separate reactions. The reactions were incubated in a Perkin-Elmer 9600 for 25 cycles as follows: 96° C. for 10 s, 50° C. for 5 s, and 60° C. for 30 s. The reactions were quenched and analyzed as above.

The conditions of series [2]: literature values; cited from earlier work.

Broadly, the Km is the concentration of substrate that gives half-maximal velocity. In the case of “Taq F667Y: ThermoSequenase, Taq F667Y mutant DNA polymerase from Amersham Pharmacia Biotech”, the “Vmax(fmol/min) TAMRA-ddCTP” value in series [1] (pBL25C:pBluescript) came to 2.3 fmol/min. The Michaelis-Menten constant (Km) in series [1] (pBL25C:pBluescript, read-out: Km(nM) TAMRA-ddCTP) came to 0.3 nM; in series [1] (pBL31G:pBluescript, 100 nM R110-ddGTP, read-out: Km(nM) Primer:template) it was 8 nM; in series [1] (pBL34A:pBluescript, read-out: Km(nM) R6G-ddATP) it was 0.35 nM; in series [1] (pBL34A:pBluescript, read-out: Km(nM) TAMRA-ddATP), 0.6 nM. Further, in series [1] (pBL31G:pBluescript, 100 nM R110-ddGTP), the “Vmax(fmol/min) Primer:template” value is on record as 7.4 fmol/min. For the same substance, the “Vmax(fmol/min) R6G-ddATP” value in series [1] (pBL34A:pBluescript) came out at 9 fmol/min. In series [1] (pBL34A:pBluescript), the “Vmax(fmol/min) TAMRA-ddATP” value was determined as 1.9 fmol/min. Also, the “ddG:dT mispair formation frequency, higher than JDF-3 P410L/A485T” value with primer:template was 20 fold. In the series with primer:template, the “ddT:dC mispair formation frequency, higher than JDF-3 P410L/A485T” value is on record as 3 fold. Further, the “dideoxynucleotide incorporation relative to unmutated / wild type enzyme” value in series [2] was 3000-8000 fold.

The record behind these values is US20040009486A1, “Compositions and methods utilizing DNA polymerases” (priority 1999, published 2004).
